# Laboratory results reported in article PMC6829520.
# B1: hTREK-1 / hK2P2.1: N110Q (protein)
# parent chain: MLPSASRERPGYRAGVAAPDLLDPKSAAQNSKPRLSFSTKPTVLASRVESDTTINVMKWKTVSTIFLVVVLYLIIGATVFKALEQPHEISQRTTIVIQKQTFISQHSCVNSTELDELIQQIVAAINAGIIPLGNTSNQISHWDLGSSFFFAGTVITTIGFGNISPRTEGGKIFCIIYALLGIPLFGFLLAGVGDQLGTIFGKGIAKVEDTFIKWNVSQTKIRIISTIIFILFGCVLFVALPAIIFKHIEGWSALDAIYFVVITLTTIGFGDYVAGGSDIEYLDFYKPVVWFWILVGLAYFAAVLSMIGDWLRVISKKTKEEVGEFRAHAAEWTANVTAEFKETRRRLSVEIYDKFQRATSIKRKLSAELAGNHNQELTPCRRTLSVNHLTSERDVLPPLLKTESIYLNGLTPHCAGEEIAVIENIK
# B2: hTREK-1 / hK2P2.1: N110Q/N134Q (protein)
# parent chain: B1 parent chain
# B3: hTREK-1 / hK2P2.1: tunicamycin coinjection (2 or 3 ng per oocyte) (protein)
# parent chain: B1 parent chain
# B4: hTREK-1 / hK2P2.1: tunicamycin (incubation or injection) (protein)
# parent chain: B1 parent chain
# B5: hTREK-1 / hK2P2.1: N134Q (protein)
# parent chain: B1 parent chain
# B6: hTREK-1 / hK2P2.1: tunicamycin incubation (0.75 or 1.5 mg/L) (protein)
# parent chain: B1 parent chain
# B7: hTREK-1 / hK2P2.1: tunicamycin (protein)
# parent chain: B1 parent chain
# Columns and labels:
# [1] = TEVC, Xenopus oocytes; details: glycan lost
# [2] = TEVC, oocytes, 24 h versus 48 h; details: glycan lost; control: wild type
# [3] = TEVC, Xenopus oocytes, +20 mV, 48 h; details: glycan lost; control: wild type
# [4] = TEVC pulse step protocol, oocytes, 48 h; details: glycan lost; control: wild type
# [5] = eGFP fluorescence microscopy with WGA membrane stain, HeLa; details: glycan lost; control: hTREK-1-WT-eGFP
# [6] = surface biotinylation, streptavidin pull-down, immunoblot, HEK-293T; details: glycan lost; control: wild type
# [7] = TEVC, Xenopus oocytes, +20 mV, 24/48 h; details: glycan lost; control: DMSO vehicle
# [8] = TEVC pulse step protocol, oocytes; details: glycan lost; control: DMSO vehicle
Protein,other: resting membrane potential ([1]; control: wild type),"other: current at 24 h relative to 48 h (onset of current), other: 24 h current as % of 48 h current [2]","other: channel current, percent_of_wt [3]",other: current-voltage relationship [4],localisation_or_trafficking [5],"localisation_or_trafficking, other: reduction of surface fraction relative to WT [6]",also measured
B1,changes,"decreases, 54 vs 57 % to 66%",decreases,no change,no change,"decreases, reduction of surface protein expression (about 16 % for both, N110Q and N134Q)",
B2,changes,"decreases, 31 vs 57 % to 66%","decreases, a current reduction of 65.5 ± 0.7 % in nonglycosylated subunits",no change,no change,"decreases, accompanied by a reduction in surface expression of 70.2%",
B3,,,,,,,other: channel current [7]: decreases
B4,,,,,,,other: resting membrane potential ([1]; control: DMSO vehicle): changes
B5,changes,"decreases, 41 vs 57 % to 66%",decreases,no change,no change,decreases,
B6,,,,,,,"other: channel current [7]: decreases, tunicamycin treatment (incubation with 1.5 mg/L) resulted in a current reduction of 79.4%"
B7,,,,,,,other: current-voltage relationship [8]: no change
